Source: the supplement of paper PMC5998384

Experiments:
[1] = system: HeLa Kyoto; experiment: solubility in G1/S (NP-40 vs SDS abundance) (log2 ratio); higher = more soluble; conditions: cell cycle stage: G1/S
[2] = system: HeLa Kyoto; experiment: solubility change mitosis vs G1/S (difference of NP-40 vs SDS log2 ratios) (log2 ratio difference); higher = more soluble in mitosis
[3] = system: HeLa Kyoto; experiment: thermal stability score vs G1/S (z-score of summed log2 fold changes over temperatures); higher = more thermally stable than in G1/S
[4] = system: HeLa Kyoto; experiment: melting temperature (median over replicates), in situ; higher = more thermally stable; conditions: cell cycle stage: mitosis
[5] = cell cycle stage: early G1 (4.5 h after nocodazole release)
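Throughout, for melting temperature (median over replicates), in situ: HeLa Kyoto cells synchronized by double thymidine or nocodazole block, proteins quantified by TMT10plex mass spectrometry, three independent biological replicates.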
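Throughout, for solubility change mitosis vs G1/S (difference of NP-40 vs SDS log2 ratios): synchronized HeLa Kyoto cells (double thymidine block for G1/S, nocodazole release for mitosis), protein amounts in NP-40 versus SDS lysates quantified by mass spectrometry, three biological replicates.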
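Throughout, for solubility in G1/S (NP-40 vs SDS abundance): HeLa Kyoto cells arrested at G1/S by double thymidine block, proteins quantified by TMT10plex mass spectrometry in mild NP-40 versus SDS extracts, three biological replicates.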
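Throughout, for thermal stability score vs G1/S (z-score of summed log2 fold changes over temperatures): synchronized HeLa Kyoto cells, proteins quantified by TMT10plex mass spectrometry, three biological replicates, mitosis taken 0.5 h after nocodazole release, G1/S directly after double thymidine block.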

ERGIC3, sequence (chain, as listed by the source): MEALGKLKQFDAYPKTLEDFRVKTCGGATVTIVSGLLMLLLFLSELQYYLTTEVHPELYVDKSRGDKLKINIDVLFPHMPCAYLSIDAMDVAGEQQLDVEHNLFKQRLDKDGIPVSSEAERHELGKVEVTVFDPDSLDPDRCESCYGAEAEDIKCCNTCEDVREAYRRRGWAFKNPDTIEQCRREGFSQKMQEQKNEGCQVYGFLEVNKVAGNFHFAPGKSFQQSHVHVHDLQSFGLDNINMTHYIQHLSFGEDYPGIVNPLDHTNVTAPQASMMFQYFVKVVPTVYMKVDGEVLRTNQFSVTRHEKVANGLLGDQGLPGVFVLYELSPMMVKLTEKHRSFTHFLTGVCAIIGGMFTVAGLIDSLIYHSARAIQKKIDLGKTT
INPP5B, sequence (chain, as listed by the source): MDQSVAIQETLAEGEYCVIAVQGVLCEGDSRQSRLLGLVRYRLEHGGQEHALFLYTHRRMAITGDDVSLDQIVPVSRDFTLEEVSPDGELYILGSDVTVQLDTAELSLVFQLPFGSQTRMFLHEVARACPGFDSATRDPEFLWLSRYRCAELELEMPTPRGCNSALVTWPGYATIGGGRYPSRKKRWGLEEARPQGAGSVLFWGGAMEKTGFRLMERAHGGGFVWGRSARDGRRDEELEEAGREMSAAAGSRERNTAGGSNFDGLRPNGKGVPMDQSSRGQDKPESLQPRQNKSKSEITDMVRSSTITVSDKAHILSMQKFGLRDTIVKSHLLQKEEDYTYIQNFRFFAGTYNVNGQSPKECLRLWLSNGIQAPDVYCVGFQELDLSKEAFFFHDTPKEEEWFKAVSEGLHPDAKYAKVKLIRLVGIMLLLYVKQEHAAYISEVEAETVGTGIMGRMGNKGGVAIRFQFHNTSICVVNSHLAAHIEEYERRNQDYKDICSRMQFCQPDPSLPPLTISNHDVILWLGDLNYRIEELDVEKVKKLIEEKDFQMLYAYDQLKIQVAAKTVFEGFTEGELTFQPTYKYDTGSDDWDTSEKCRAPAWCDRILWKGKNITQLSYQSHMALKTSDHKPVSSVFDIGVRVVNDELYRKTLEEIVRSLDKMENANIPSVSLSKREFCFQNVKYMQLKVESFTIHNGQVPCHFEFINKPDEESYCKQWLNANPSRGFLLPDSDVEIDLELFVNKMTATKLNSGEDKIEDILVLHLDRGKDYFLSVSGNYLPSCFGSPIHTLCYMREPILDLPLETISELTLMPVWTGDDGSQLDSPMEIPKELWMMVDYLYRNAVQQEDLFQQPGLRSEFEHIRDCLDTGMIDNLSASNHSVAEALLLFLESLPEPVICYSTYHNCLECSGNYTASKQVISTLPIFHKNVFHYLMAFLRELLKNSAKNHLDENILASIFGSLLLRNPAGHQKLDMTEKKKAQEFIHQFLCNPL
CSNK1G1, sequence (chain, as listed by the source): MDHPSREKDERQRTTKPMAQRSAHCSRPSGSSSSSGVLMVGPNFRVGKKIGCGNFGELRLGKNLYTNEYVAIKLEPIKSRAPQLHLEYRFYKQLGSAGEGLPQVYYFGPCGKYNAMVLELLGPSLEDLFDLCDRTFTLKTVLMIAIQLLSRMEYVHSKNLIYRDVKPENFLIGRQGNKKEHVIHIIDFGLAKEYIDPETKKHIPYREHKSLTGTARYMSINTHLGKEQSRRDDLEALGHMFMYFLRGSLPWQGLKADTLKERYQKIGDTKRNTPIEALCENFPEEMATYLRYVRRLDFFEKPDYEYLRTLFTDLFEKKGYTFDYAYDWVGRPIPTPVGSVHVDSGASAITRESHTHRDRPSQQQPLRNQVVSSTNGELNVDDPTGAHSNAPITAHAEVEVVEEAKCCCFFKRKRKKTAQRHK
CMC2, sequence (chain, as listed by the source): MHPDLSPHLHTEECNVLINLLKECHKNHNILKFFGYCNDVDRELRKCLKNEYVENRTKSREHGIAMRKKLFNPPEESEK

| Substance | solubility change mitosis (log2) [2] | also measured |
| --- | --- | --- |
| ALAS1 | 0.00951 | solubility in G1/S (log2) [1]: 0.132 |
| ASNSD1 | 0.0506 | solubility in G1/S (log2) [1]: -0.0495 |
| ATAD5 | 0.557 | solubility in G1/S (log2) [1]: -1.01 |
| CCDC88C | -0.288 | solubility in G1/S (log2) [1]: -0.065 |
| CDK5RAP2 | -0.239 | solubility in G1/S (log2) [1]: -0.157 |
| CHD6 | -0.0389 | solubility in G1/S (log2) [1]: -0.23 |
| CMC2 | 0.0296 | solubility in G1/S (log2) [1]: 0.229 |
| CSNK1G1 | 0.0486 | solubility in G1/S (log2) [1]: -0.3 |
| DNAJB5 | 0.00156 | solubility in G1/S (log2) [1]: 0.153 |
| DOPEY2 | -0.106 | solubility in G1/S (log2) [1]: -0.255 |
| ELL2 | 0.0626 | solubility in G1/S (log2) [1]: 0.0976 |
| ERGIC3 | -0.0891 | thermal stability score [3, 5]: -2.7; thermal stability score ([3]; cell cycle stage: mitosis): -7.02 |
| GFER | 0.192 | solubility in G1/S (log2) [1]: 0.733 |
| HEATR5A | -0.116 | solubility in G1/S (log2) [1]: -0.0946 |
| HELZ2 | -0.0125 | solubility in G1/S (log2) [1]: -0.293 |
| INPP5B | -0.0113 | solubility in G1/S (log2) [1]: -0.143 |
| IWS1 | 0.062 |  |
| KDM1A | -0.0676 |  |
| KDM5A | 0.00727 | solubility in G1/S (log2) [1]: -0.206 |
| KIAA0586 | 0.00667 | solubility in G1/S (log2) [1]: -0.0749 |
| KMT2B | 0.243 | solubility in G1/S (log2) [1]: -0.355 |
| LAMTOR5 | -0.0394 |  |
| MAAAAEERMAEEGGGGQGDGGSSLASGSTQRQPPPPAPQHPQPGSQALPAPALAPDQLPQNNTLVALPIVAIENILSFMSYDEISQLRLVCKRMDLVCQRMLNQGFLKVERYHNLCQKQVKAQLPRRESERRNHSLARHADILAAVETRLSLLNMTFMKYVDSNLCCFIPGKVIDEIYRVLRYVNSTRAPQRAHEVLQELRDISSMAMEYFDEKIVPILKRKLPGSDVSGRLMGSPPVPGPSAALTTMQLFSKQNPSRQEVTKLQQQVKTNGAGVTVLRREISELRTKVQEQQKQLQDQDQKLLEQTQIIGEQNARLAELERKLREVMESAVGNSSGSGQNEESPRKRKKATEAIDSLRKSKRLRNRK [FBXO28] | 0.262 | solubility in G1/S (log2) [1]: 0.375 |

| Substance | solubility change mitosis (log2) [2] | also measured |
| --- | --- | --- |
| MAASSSGEKEKERLGGGLGVAGGNSTRERLLSALEDLEVLSRELIEMLAISRNQKLLQAGEENQVLELLIHRDGEFQELMKLALNQGKIHHEMQVLEKEVEKRDSDIQQLQKQLKEAEQILATAVYQAKEKLKSIEKARKGAISSEEIIKYAHRISASNAVCAPLTWVPGDPRRPYPTDLEMRSGLLGQMNNPSTNGVNGHLPGDALAAGRLPDVLAPQYPWQSNDMSMNMLPPNHSSDFLLEPPGHNKENEDDVEIMSTDSSSSSSESD [MED4] | -0.0345 | thermal stability score [3, 5]: -1.56; thermal stability score ([3]; cell cycle stage: mitosis): -1.18 |
| MFSWMGRQAGGRERAGGADAVQTVTGGLRSLYLRKVLPLEEAYRFHEFHSPALEDADFENKPMILLVGQYSTGKTTFIRYLLEQDFPGMRIGPEPTTDSFIAVMYGETEGSTPGNALVVDPKKPFRKLSRFGNAFLNRFMCSQLPNQVLKSISVIDSPGILSGEKQRISRGYDFCQVLQWFAERVDRIILLFDAHKLDISDEFSEAIKAFRGQDDKIRVVLNKADQVDTQQLMRVYGALMWSLGKVINTPEVLRVYIGSFWAQPLQNTDNRRLFEAEAQDLFRDIQSLPQKAAVRKLNDLIKRARLAKVHAYIISYLKKEMPSVFGKENKKRELISRLPEIYIQLQREYQISAGDFPEVKAMQEQLENYDFTKFHSLKPKLIEAVDNMLSNKISPLMNLISQEETSTPTQLVQGGAFDGTTEGPFNQGYGEGAKEGADEEEWVVAKDKPVYDELFYTLSPINGKISGVNAKKEMVTSKLPNSVLGKIWKLADCDCDGMLDEEEFALAKHLIKIKLDGYELPSSLPPHLVPPSHRKSLPKAD [EHD4] |  | solubility in G1/S (log2) [1]: 0.226; melting temperature [4]: 50.4 °C |
| MFYAHFVLSKRGPLAKIWLAAHWDKKLTKAHVFECNLESSVESIISPKVKMALRTSGHLLLGVVRIYHRKAKYLLADCNEAFIKIKMAFRPGVVDLPEENREAAYNAITLPEEFHDFDQPLPDLDDIDVAQQFSLNQSRVEEITMREEVGNISILQENDFGDFGMDDREIMREGSAFEDDDMLVSTTTSNLLLESEQSTSNLNEKINHLEYEDQYKDDNFGEGNDGGILDDKLISNNDGGIFDDPPALSEAGVMLPEQPAHDDMDEDDNVSMGGPDSPDSVDPVEPMPTMTDQTTLVPNEEEAFALEPIDITVKETKAKRKRKLIVDSVKELDSKTIRAQLSDYSDIVTTLDLAPPTKKLMMWKETGGVEKLFSLPAQPLWNNRLLKLFTRCLTPLVPEDLRKRRKGGEADNLDEFLKEFENPEVPREDQQQQHQQRDVIDEPIIEEPSRLQESVMEASRTNIDESAMPPPPPQGVKRKAGQIDPEPVMPPQQVEQMEIPPVELPPEEPPNICQLIPELELLPEKEKEKEKEKEDDEEEEDEDASGGDQDQEERRWNKRTQQMLHGLQRALAKTGAESISLLELCRNTNRKQAAAKFYSFLVLKKQQAIELTQEEPYSDIIATPGPRFHII [RAD21] | -0.0219 | thermal stability score [3, 5]: -1.05; thermal stability score ([3]; cell cycle stage: mitosis): -1.37 |
| MGGSGSRLSKELLAEYQDLTFLTKQEILLAHRRFCELLPQEQRSVESSLRAQVPFEQILSLPELKANPFKERICRVFSTSPAKDSLSFEDFLDLLSVFSDTATPDIKSHYAFRIFDFDDDGTLNREDLSRLVNCLTGEGEDTRLSASEMKQLIDNILEESDIDRDGTINLSEFQHVISRSPDFASSFKIVL [CIB1] | -0.0256 |  |
| MPGIDKLPIEETLEDSPQTRSLLGVFEEDATAISNYMNQLYQAMHRIYDAQNELSAATHLTSKLLKEYEKQRFPLGGDDEVMSSTLQQFSKVIDELSSCHAVLSTQLADAMMFPITQFKERDLKEILTLKEVFQIASNDHDAAINRYSRLSKKRENDKVKYEVTEDVYTSRKKQHQTMMHYFCALNTLQYKKKIALLEPLLGYMQAQISFFKMGSENLNEQLEEFLANIGTSVQNVRREMDSDIETMQQTIEDLEVASDPLYVPDPDPTKFPVNRNLTRKAGYLNARNKTGLVSSTWDRQFYFTQGGNLMSQARGDVAGGLAMDIDNCSVMAVDCEDRRYCFQITSFDGKKSSILQAESKKDHEEWICTINNISKQIYLSENPEETAARVNQSALEAVTPSPSFQQRHESLRPAAGQSRPPTARTSSSGSLGSESTNLAALSLDSLVAPDTPIQFDIISPVCEDQPGQAKAFGQGGRRTNPFGESGGSTKSETEDSILHQLFIVRFLGSMEVKSDDHPDVVYETMRQILAARAIHNIFRMTESHLLVTCDCLKLIDPQTQVTRLTFPLPCVVLYATHQENKRLFGFVLRTSSGRSESNLSSVCYIFESNNEGEKICDSVGLAKQIALHAELDRRASEKQKEIERVKEKQQKELNKQKQIEKDLEEQSRLIAASSRPNQASSEGQFVVLSSSQSEESDLGEGGKKRESEA [APPL1] |  | solubility in G1/S (log2) [1]: 0.05; melting temperature [4]: 50.4 °C |
| MRPL15 | 0.041 |  |
| MRPL16 | 0.059 |  |
| MRPL17 | -0.0699 |  |
| MRPL19 | 0.048 |  |
| MRPL21 | 0.00832 |  |
| MRPL22 | -0.00907 |  |
| MRPL38 | -0.0167 |  |
| MRPL42 | 0.296 |  |
| MRPL44 | -0.0742 |  |
| MRPL49 | 0.257 |  |
| MRPL50 | 0.178 |  |
| MRPL55 | 0.249 |  |
| MRPL57 | -0.109 |  |
| MRPS2 | 0.0234 |  |
| MRPS12 | 0.0958 |  |
| MRPS18A | 0.0389 |  |
| MRPS26 | 0.0692 |  |
| MRPS28 | 0.31 |  |

| Substance | solubility change mitosis (log2) [2] | also measured |
| --- | --- | --- |
| MRTO4 | 0.303 |  |
| MSALEKSMHLGRLPSRPPLPGSGGSQSGAKMRMGPGRKRDFSPVPWSQYFESMEDVEVENETGKDTFRVYKSGSEGPVLLLLHGGGHSALSWAVFTAAIISRVQCRIVALDLRSHGETKVKNPEDLSAETMAKDVGNVVEAMYGDLPPPIMLIGHSMGGAIAVHTASSNLVPSLLGLCMIDVVEGTAMDALNSMQNFLRGRPKTFKSLENAIEWSVKSGQIRNLESARVSMVGQVKQCEGITSPEGSKSIVEGIIEEEEEDEEGSESISKRKKEDDMETKKDHPYTWRIELAKTEKYWDGWFRGLSNLFLSCPIPKLLLLAGVDRLDKDLTIGQMQGKFQMQVLPQCGHAVHEDAPDKVAEAVATFLIRHRFAEPIGGFQCVFPGC [PPME1] | 0.0133 | thermal stability score [3, 5]: -0.13; thermal stability score ([3]; cell cycle stage: mitosis): -0.609 |
| PACSIN3 | 0.0183 |  |
| PAF1 | -0.0983 |  |
| PEX5 | -0.137 |  |
| POFUT1 | -0.148 |  |
| POLR2H | -0.00215 |  |
| POLR2I | 0.429 |  |
| PPIA | -0.0495 |  |
| PPP2R5C | -0.158 |  |
| PRG4 | 0.251 |  |
| PTDSS1 | 0.124 |  |
| RNF167 | -0.0145 |  |
| RPL7L1 | 1.18 |  |
| RPL8 | 0.63 |  |
| RPL10 | 0.638 |  |
| RPL10A | 0.596 |  |
| RPL14 | 0.811 |  |
| RPL17 | 0.699 |  |
| RPL18A | 0.618 |  |
| RPL26 | 0.817 |  |
| RPL28 | 0.852 |  |
| RPL37A | 0.616 |  |

| Substance | solubility change mitosis (log2) [2] | also measured |
| --- | --- | --- |
| RPLP0 | 0.6 |  |
| RPS7 | 0.675 |  |
| RPS17 | 0.529 |  |
| RPS19 | 1.02 |  |
| RPS20 | 0.612 |  |
| RPS23 | 0.687 |  |
| RPS24 | 0.772 |  |
| RPS25 | 0.71 |  |
| RPS26 | 0.618 |  |
| RPSA | 0.449 |  |
| RTF1 | 0.0675 |  |
| SMU1 | 0.423 |  |
| SUPT5H | -0.0755 |  |
| TMEM245 | 0.113 |  |
| TPCN1 | -0.0955 |  |
| TTR | 0.336 |  |
| UNC119 | -0.0626 |  |
| WDR12 | 0.45 |  |
| WDR61 | -0.0946 |  |
| YTHDC1 | -0.0521 |  |
